In article PMC3912051:

How the values were obtained:
[1] = target: TRIM28 (endogenous human TRIM28 protein) (human (endogenous in HeLa)) (UniProt Q13263)
[2] = target: ZNF10 KRAB-AB KRAB-AB (Homo sapiens) (UniProt P21506); conditions: cited from earlier work
Sequence of ZNF10 KRAB-AB KRAB-AB (Homo sapiens) (P21506 14-85): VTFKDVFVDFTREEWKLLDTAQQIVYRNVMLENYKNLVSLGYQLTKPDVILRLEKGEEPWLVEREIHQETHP

Sequence of TRIM28 (endogenous human TRIM28 protein) (human (endogenous in HeLa)) (Q13263 whole entry): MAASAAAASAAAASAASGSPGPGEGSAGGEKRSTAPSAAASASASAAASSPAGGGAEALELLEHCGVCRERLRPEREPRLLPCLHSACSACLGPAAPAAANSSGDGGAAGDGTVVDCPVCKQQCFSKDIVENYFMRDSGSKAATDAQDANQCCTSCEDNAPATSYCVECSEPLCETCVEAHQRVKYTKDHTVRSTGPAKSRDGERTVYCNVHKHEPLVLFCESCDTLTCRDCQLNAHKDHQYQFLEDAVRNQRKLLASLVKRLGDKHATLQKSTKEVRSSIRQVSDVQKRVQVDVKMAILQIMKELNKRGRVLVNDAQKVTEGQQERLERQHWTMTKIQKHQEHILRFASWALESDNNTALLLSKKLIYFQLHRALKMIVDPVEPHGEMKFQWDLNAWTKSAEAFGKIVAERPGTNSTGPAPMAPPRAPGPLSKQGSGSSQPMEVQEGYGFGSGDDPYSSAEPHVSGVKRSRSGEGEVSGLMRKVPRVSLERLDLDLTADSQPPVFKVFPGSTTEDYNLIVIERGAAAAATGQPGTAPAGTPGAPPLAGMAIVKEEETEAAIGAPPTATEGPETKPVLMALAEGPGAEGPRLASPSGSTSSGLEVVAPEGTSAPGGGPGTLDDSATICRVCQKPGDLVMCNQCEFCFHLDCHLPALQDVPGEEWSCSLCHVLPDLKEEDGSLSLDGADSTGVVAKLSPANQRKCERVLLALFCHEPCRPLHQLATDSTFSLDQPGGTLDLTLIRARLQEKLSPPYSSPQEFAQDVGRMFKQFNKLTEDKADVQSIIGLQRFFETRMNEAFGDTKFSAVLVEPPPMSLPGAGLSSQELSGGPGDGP
Sequence of TRIM28 (Q13263 2-835): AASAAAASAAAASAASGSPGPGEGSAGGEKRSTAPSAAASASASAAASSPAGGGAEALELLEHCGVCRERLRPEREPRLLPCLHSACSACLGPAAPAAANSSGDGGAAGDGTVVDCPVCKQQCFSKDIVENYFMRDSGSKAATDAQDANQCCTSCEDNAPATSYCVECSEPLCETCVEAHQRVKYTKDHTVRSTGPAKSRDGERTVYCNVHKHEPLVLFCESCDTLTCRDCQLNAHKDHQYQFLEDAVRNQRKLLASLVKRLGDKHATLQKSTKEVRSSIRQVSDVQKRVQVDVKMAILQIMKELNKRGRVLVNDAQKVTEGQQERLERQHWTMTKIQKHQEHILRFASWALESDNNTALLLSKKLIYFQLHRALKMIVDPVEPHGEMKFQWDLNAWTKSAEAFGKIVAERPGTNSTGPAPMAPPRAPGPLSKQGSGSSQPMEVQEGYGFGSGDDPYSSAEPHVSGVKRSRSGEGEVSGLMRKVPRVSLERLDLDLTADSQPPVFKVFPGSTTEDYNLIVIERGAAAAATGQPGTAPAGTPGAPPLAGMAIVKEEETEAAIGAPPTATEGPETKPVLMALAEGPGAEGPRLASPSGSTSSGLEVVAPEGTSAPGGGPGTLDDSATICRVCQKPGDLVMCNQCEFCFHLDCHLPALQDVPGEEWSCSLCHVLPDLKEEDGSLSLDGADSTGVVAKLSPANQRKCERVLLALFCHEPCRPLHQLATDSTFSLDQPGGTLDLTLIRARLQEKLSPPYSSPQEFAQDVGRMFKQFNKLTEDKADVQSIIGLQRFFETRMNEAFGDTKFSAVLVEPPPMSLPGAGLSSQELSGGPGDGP

| fold repression of a Gal4-site luciferase reporter by Gal4-XFIN-KRAB-AB in EPC fish cells with co-transfected human TRIM28 (negligible without it) [1] [fold] | Substance | Kd [2] [nM] |
| --- | --- | --- |
| 2 | GST-XFIN-KRAB-AB (corrected KRAB-AB domain of Xenopus laevis XFIN fused to glutathione S-transferase) (domain or fragment) |  |
|  | TRIM28 (from UniProt Q13263) | 142 |
